Our source for the optical density values is US20210380703A1 (RIGEL PHARMACEUTICALS, published 2021).

Experiment [1] has as its target T1, biotinylated goat anti-human kappa light chain.
T1 construct: positive control of the ELISA
Put plainly: ELISA, positive control. In outline:
(§1)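 ELISA measured binding of ACVR2A-specific monoclonal antibodies to human and mouse ACVR2A. Biotinylated goat anti-human kappa light chain served as positive control and human Fc as negative control.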
(An ELISA detects its analyte on a solid surface through an enzyme-linked reagent.)

A further experiment has as its target T2, human ACVR2A (human, UniProt P27037 20-135, limits assumed).
T2 construct: also called activin receptor, type II A
Description: ELISA. In outline: as §1

A further experiment has as its target mouse ACVR2A (mouse, UniProt P27038 20-135, limits assumed). Description: ELISA. The gist of the method:
as §1
Also: test concentration or dose not given here.

mouse ACVR2A, sequence (P27038 20-135 limits assumed): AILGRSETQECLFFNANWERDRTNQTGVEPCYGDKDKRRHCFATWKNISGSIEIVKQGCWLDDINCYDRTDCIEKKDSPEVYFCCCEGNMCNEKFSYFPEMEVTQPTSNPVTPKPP
T2 sequence (P27037 20-135 limits assumed): as the sequence (P27038 20-135 limits assumed) above, with R20K, I73V counted along it

B1: 367_E10 (antibody, V domains shown)
VH: EVQLLESGGGLVQPGGSLRLSCAASGFTFSSYGMHWVRQAPGKGLEWVSSINYNGGYTGYADSVKGRFTISRDNSKNTLYLQMNSLRAEDTAVYYCARAATWHDTHLDYWGQGTLVTVSS
VL: DIQMTQSPSSLSASVGDRVTITCRASQSILSYVNWYQQKPGKAPKLLIYAATSRASGVPSRFSGSGSGTDFTLTISSLQPEDFATYYCQQSYELPLTFGGGTKVEIK
notes: Group II
For B1, the optical density in experiment [1] is 3.48 OD; with human ACVR2A it was 2.77 OD; with mouse ACVR2A it was 2.98 OD.

B2: 368_B11 (antibody, V domains shown)
VH: EVQLLESGGGLVQPGGSLRLSCAASGFTFDSYGMHWVRQAPGKGLEWVSGINYNGGYKSYADSVKGRFTISRDNSKNTLYLQMNSLRAEDTAVYYCARAANWHDTHLDYWGQGTLVTVSS
VL: DIQMTQSPSSLSASVGDRVTITCRASQSILSYLNWYQQKPGKAPKLLIYAASSLQSGVPSRFSGSGSGTDFTLTISSLQPEDFATYYCQQSYDSPLTFGGGTKVEIK
notes: Group I
For B2, the values for the optical density (in experiment [1]; in the experiment with human ACVR2A; with mouse ACVR2A) were 3.61 OD, 2.14 OD and 2.35 OD, respectively.

B3: 368_A02 (antibody, V domains shown)
VH: EVQLLESGGGLVQPGGSLRLSCAASGFTFDSYGMNWVRQAPGKGLEWVAGINYNGGYKSYADSVKGRFTISRDNSKNTLYLQMNSLRAEDTAVYYCARAANWHDTHLDYWGQGTLVTVSS
VL: DIQMTQSPSSLSASVGDRVTITCRASQSIISYVNWYQQKPGKAPKLVIYAATSRASGVPSRFSGSGSGTDFTLTISSLQPEDFATYYCQQSYDTPLTFGGGTKVEIK
notes: Group I
Take B3: the optical density in experiment [1] was 3.69 OD; in the experiment with human ACVR2A it was 2.57 OD; with mouse ACVR2A, 2.74 OD.

B4: 367_F08 (antibody, V domains shown)
VH: EVQLLESGGGLVQPGGSLRLSCAASGFTFSSYGMHWVRQAPGKGLEWVSSINYNSGYTSYADSVKGRFTISRDNSKNTLYLQMNSLRAEDTAVYYCARAATWHDTHLDYWGQGTLVTVSS
VL: DIQMTQSPSSLSASVGDRVTITCRASQSILSYVNWYQQKPGKAPKLVIYAATSRASGVPSRFSGSGSGTDFTLTISSLQPEDFATYYCQQSNELPLTFGGGTKVEIK
notes: Group II
With B4, the optical density in experiment [1] turned out to be 3.54 OD; with human ACVR2A, 2.08 OD; in the experiment with mouse ACVR2A, 2.19 OD.

B5: 368_B10 (antibody, V domains shown)
VH: EVQLLESGGGLVQPGGSLRLSCAASGFTFDSYGMHWVRQAPGKGLEWVASINYNGGYTSYADSVKGRFTISRDNSKNTLYLQMNSLRAEDTAVYYCARAANWHDTALDYWGQGTLVTVSS
VL: DIQMTQSPSSLSASVGDRVTITCRASQSILTYLNWYQQKPGKAPKLVIYAATSRASGVPSRFSGSGSGTDFTLTISSLQPEDFATYYCQQSDELPLTFGGGTKVEIK
notes: Group I
Regarding B5, the optical density in experiment [1] amounted to 3.02 OD; with human ACVR2A, 2.35 OD; in the experiment with mouse ACVR2A, 2.42 OD.

B6: 367_H08 (antibody, V domains shown)
VH: EVQLLESGGGLVQPGGSLRLSCAASGFTFDSYGMNWVRQAPGKGLEWVSSINYNGGYTSYADSVKGRFTISRDNSKNTLYLQMNSLRAEDTAVYYCARAATWHDTHLDYWGQGTLVTVSS
VL: DIQMTQSPSSLSASVGDRVTITCRASQSILTYVNWYQQKPGKAPKLLIYAATSRHSGVPSRFSGSGSGTDFTLTISSLQPEDFATYYCQQSYNLPLTFGGGTKVEIK
notes: Group II
Regarding B6, the optical density in experiment [1] was found to be 3.54 OD; with human ACVR2A it was 2.27 OD; in the experiment with mouse ACVR2A, 2.47 OD.

B7: 368_B08 (antibody, V domains shown)
VH: EVQLLESGGGLVQPGGSLRLSCAASGFTFDSYGMNWVRQAPGKGLEWVSSINYNGGYTSYADSVKGRFTISRDNSKNTLYLQMNSLRAEDTAVYYCARAANWHDTHLDYWGQGTLVTVSS
VL: DIQMTQSPSSLSASVGDRVTITCRASQSILTYVNWYQQKPGKAPKLVIYAATSRASGVPSRFSGSGSGTDFTLTISSLQPEDFATYYCQQSYENPLTFGGGTKVEIK
notes: Group I
Take B7: the figures for the optical density (in experiment [1]; in the experiment with human ACVR2A; in the experiment with mouse ACVR2A) were 3.21 OD, 1.98 OD and 2.18 OD, respectively.

B8: 367_G03 (antibody, V domains shown)
VH: EVQLLESGGGLVQPGGSLRLSCAASGFTFDSYSMHWVRQAPGKGLEWVANINYNGGYTSYADSVKGRFTISRDNSKNTLYLQMNSLRAEDTAVYYCARAATWHDTHLDYWGQGTLVTVSS
VL: DIQMTQSPSSLSASVGDRVTITCRASQSIVSYVNWYQQKPGKAPKLVIYAATSRHSGVPSRFSGSGSGTDFTLTISSLQPEDFATYYCQQSYDLPLTFGGGTKVEIK
notes: Group II
With B8, the values for the optical density (in experiment [1]; with human ACVR2A; in the experiment with mouse ACVR2A) were 3.6 OD, 2.59 OD and 2.63 OD, respectively.

B9: 368_B04 (antibody, V domains shown)
VH: EVQLLESGGGLVQPGGSLRLSCAASGFTFDSYGMHWVRQAPGKGLEWVSSINYNGGYTSYADSVKGRFTISRDNSKNTLYLQMNSLRAEDTAVYYCARAATWHDTHLDYWGQGTLVTVSS
VL: DIQMTQSPSSLSASVGDRVTITCRASQSIVSYLNWYQQKPGKAPKLVIYAATSRASGVPSRFSGSGSGTDFTLTISSLQPEDFATYYCQQSYENPLTFGGGTKVEIK
notes: Group II
As for B9, the optical density in experiment [1] is 3.29 OD; with human ACVR2A it was 2.27 OD; in the experiment with mouse ACVR2A it was 2.73 OD.

B10: 367_H01 (antibody, V domains shown)
VH: EVQLLESGGGLVQPGGSLRLSCAASGFTFDSYGMNWVRQAPGKGLEWVSGINYNGGYKSYADSVKGRFTISRDNSKNTLYLQMNSLRAEDTAVYYCARAANWHDTALDYWGQGTLVTVSS
VL: DIQMTQSPSSLSASVGDRVTITCRASQSILTYLNWYQQKPGKAPKLVIYAATSRASGVPSRFSGSGSGTDFTLTISSLQPEDFATYYCQQSYDNPLTFGGGTKVEIK
notes: Group I
In the case of B10, the optical density in experiment [1] was 3.65 OD; in the experiment with human ACVR2A it was 2.82 OD; in the experiment with mouse ACVR2A, 2.69 OD.

B11: 368_B12 (antibody, V domains shown)
VH: EVQLLESGGGLVQPGGSLRLSCAASGFTFDSYGMHWVRQAPGKGLEWVSGINYNSGYTSYADSVKGRFTISRDNSKNTLYLQMNSLRAEDTAVYYCARAATWHDTHLDYWGQGTLVTVSS
VL: DIQMTQSPSSLSASVGDRVTITCRASQSIVSYVNWYQQKPGKAPKLLIYAATSRASGVPSRFSGSGSGTDFTLTISSLQPEDFATYYCQQSYDLPLTFGGGTKVEIK
notes: Group II
In the case of B11, the values for the optical density (in experiment [1]; with human ACVR2A; with mouse ACVR2A) were 3.49 OD, 2.51 OD and 2.47 OD, respectively.

B12: 367_G11 (antibody, V domains shown)
VH: EVQLLESGGGLVQPGGSLRLSCAASGFTFSSYGMHWVRQAPGKGLEWVASINYNGGYTSYADSVKGRFTISRDNSKNTLYLQMNSLRAEDTAVYYCARAATWHDTHLDYWGQGTLVTVSS
VL: DIQMTQSPSSLSASVGDRVTITCRASQSILTYLNWYQQKPGKAPKLLIYAATSRHSGVPSRFSGSGSGTDFTLTISSLQPEDFATYYCQQSDDSPLTFGGGTKVEIK
notes: Group II
On to B12, for which the optical density amounted to 3.56 OD in experiment [1], 2.56 OD with human ACVR2A and 2.67 OD in the experiment with mouse ACVR2A.

B13: 368_A06 (antibody, V domains shown)
VH: EVQLLESGGGLVQPGGSLRLSCAASGFTFDSYSMHWVRQAPGKGLEWVAGINYNSGYKGYADSVKGRFTISRDNSKNTLYLQMNSLRAEDTAVYYCARAANWHDTHLDYWGQGTLVTVSS
VL: DIQMTQSPSSLSASVGDRVTITCRASQSILSYVNWYQQKPGKAPKLLIYAATSRHSGVPSRFSGSGSGTDFTLTISSLQPEDFATYYCQQSYNSPLTFGGGTKVEIK
notes: Group I
Take B13: the figures for the optical density (in experiment [1]; with human ACVR2A; in the experiment with mouse ACVR2A) were 3.28 OD, 2.25 OD and 2.52 OD, respectively.

B14: 367_F10 (antibody, V domains shown)
VH: EVQLLESGGGLVQPGGSLRLSCAASGFTFDSYGMNWVRQAPGKGLEWVSGINYNSGYTSYADSVKGRFTISRDNSKNTLYLQMNSLRAEDTAVYYCARAATWHDTHLDYWGQGTLVTVSS
VL: DIQMTQSPSSLSASVGDRVTITCRASQSILTYLNWYQQKPGKAPKLLIYAATSRASGVPSRFSGSGSGTDFTLTISSLQPEDFATYYCQQSYDTPLTFGGGTKVEIK
notes: Group II
B14: the optical density in experiment [1] was determined as 3.42 OD; with human ACVR2A, 2.21 OD; with mouse ACVR2A, 2.36 OD.

B15: 367_F06 (antibody, V domains shown)
VH: EVQLLESGGGLVQPGGSLRLSCAASGFTFSSYGMNWVRQAPGKGLEWVSSINYNSGYTSYADSVKGRFTISRDNSKNTLYLQMNSLRAEDTAVYYCARAANWHDTALDYWGQGTLVTVSS
VL: DIQMTQSPSSLSASVGDRVTITCRASQSISSYVNWYQQKPGKAPKLLIYAVTSRASGVPSRFSGSGSGTDFTLTISSLQPEDFATYYCQQSYDSPLTFGGGTKVEIK
notes: Group I
As for B15, the optical density in experiment [1] came out at 3.35 OD; with human ACVR2A it was 2.01 OD; with mouse ACVR2A it was 2.04 OD.

B16: 368_A12 (antibody, V domains shown)
VH: EVQLLESGGGLVQPGGSLRLSCAASGFTFDSYSMHWVRQAPGKGLEWVSSINYNSGYKGYADSVKGRFTISRDNSKNTLYLQMNSLRAEDTAVYYCARAANWHDTALDYWGQGTLVTVSS
VL: DIQMTQSPSSLSASVGDRVTITCRASQSILTYLNWYQQKPGKAPKLVIYAATSRASGVPSRFSGSGSGTDFTLTISSLQPEDFATYYCQQSYDSPLTFGGGTKVEIK
notes: Group I
B16: the results for the optical density (in experiment [1]; with human ACVR2A; with mouse ACVR2A) were 3.69 OD, 3.01 OD and 2.78 OD, respectively.

B17: 368_B03 (antibody, V domains shown)
VH: EVQLLESGGGLVQPGGSLRLSCAASGFTFDDYGMNWVRQAPGKGLEWVSGINYNGGYTSYADSVKGRFTISRDNSKNTLYLQMNSLRAEDTAVYYCARAANWHDTALDYWGQGTLVTVSS
VL: DIQMTQSPSSLSASVGDRVTITCRASQSILTYLNWYQQKPGKAPKLVIYAATSLASGVPSRFSGSGSGTDFTLTISSLQPEDFATYYCQHSYENPLTFGGGTKVEIK
notes: Group I
With B17, the results for the optical density (in experiment [1]; with human ACVR2A; with mouse ACVR2A) were 3.38 OD, 2.04 OD and 2.04 OD, respectively.
